Laboratory results published in the supplement of paper PMC12042874.
± gives the uncertainty stated by the source.

Test: amyloid nucleation score (Sup35N fusion, yeast selection) (log enrichment); library NNK3; higher = more nucleation; inactive = no reads after selection
In short: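 The nucleation score, computed with DiMSum, is the log enrichment of output over input reads, centred on the mode score of non-aggregating sequences. Sequences with under 100 input reads were dropped. Reads were generated by Illumina sequencing of plasmid inserts from psi-negative yeast with Sup35N fused to peptides of 20 random codons, induced with 100 μM copper sulfate for 24 hours and grown 7 days at 30°C on medium lacking adenine and uracil.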

Question: Which amyloid nucleation score does the source give for GSYSRTLTYPHGENHENRKV here?
Answer: inactive

Question: With GTCKS as the substance, how does the amyloid nucleation score read?
Answer: inactive

Question: For GTFVFTYMWFNIYRQNDFRN, which amyloid nucleation score is on record?
Answer: inactive

Question: With GTIRDSGSHYKVISF as the substance, how does the amyloid nucleation score read?
Answer: inactive

Question: With GTITPRYRYVIEVSSMKRYW as the substance, how does the amyloid nucleation score read?
Answer: inactive

Question: For GTIYMFENGSSVS, which amyloid nucleation score is on record?
Answer: inactive

Question: Which amyloid nucleation score does the source give for GTLCTETHGT here?
Answer: inactive

Question: With GTMYVGSGGYEKL as the substance, how does the amyloid nucleation score read?
Answer: inactive

Question: Which amyloid nucleation score does the source give for GTQVYTGGRVYERLRVMSCV here?
Answer: inactive

Question: With GVFWLLNICQYGPRLRHMWS as the substance, how does the amyloid nucleation score read?
Answer: inactive

Question: For GVGTYI, which amyloid nucleation score is on record?
Answer: inactive

Question: For GVLREEL, which amyloid nucleation score is on record?
Answer: inactive

Question: For GVLVTANLYFWMEPSALPAM, which amyloid nucleation score is on record?
Answer: inactive

Question: With GVNVWRYLCH as the substance, how does the amyloid nucleation score read?
Answer: inactive

Question: Which amyloid nucleation score does the source give for GVRVS here?
Answer: inactive

Question: Which amyloid nucleation score does the source give for GVSYMNCTHWTL here?
Answer: inactive

Question: Which amyloid nucleation score does the source give for GVTLFSVVQTFLVSTLCKIE here?
Answer: inactive

Question: With GVTQVIWVAYNILFLNNCWM as the substance, how does the amyloid nucleation score read?
Answer: inactive

Question: With GVVANFSLPLSAVFAWRSFR as the substance, how does the amyloid nucleation score read?
Answer: 2.78 ± 0.055

Question: Which amyloid nucleation score does the source give for GVVYWVIRKTIEGSLQFASI here?
Answer: inactive

Question: Which amyloid nucleation score does the source give for GWGIICFAKY here?
Answer: inactive

Question: With GWKANWELCRVYVQWSGLNV as the substance, how does the amyloid nucleation score read?
Answer: 0.422 ± 0.38

Question: With GWKFMREYSKRIGSSSPVVY as the substance, how does the amyloid nucleation score read?
Answer: inactive

Question: With GWSFAWCTRVRVMGKVAVWW as the substance, how does the amyloid nucleation score read?
Answer: inactive

Question: For GYAADMIFYQGHHMKISMFR, which amyloid nucleation score is on record?
Answer: 1.08 ± 0.15

Question: For GYGVCNNDKCVQDAPGQPVS, which amyloid nucleation score is on record?
Answer: -0.357 ± 1.1

Question: With GYISMSNKHMGVYIHLA as the substance, how does the amyloid nucleation score read?
Answer: inactive

Question: With GYLLVVW as the substance, how does the amyloid nucleation score read?
Answer: inactive

Question: Which amyloid nucleation score does the source give for GYLSFIVFMGGRPSLSGNSI here?
Answer: 1.42 ± 0.14

Question: With GYQDSIGFSSR as the substance, how does the amyloid nucleation score read?
Answer: inactive

Question: With GYRSCCCEKLRSRSCGSSWA as the substance, how does the amyloid nucleation score read?
Answer: inactive

Question: For GYSNFDCLSSLNISEYGPAA, which amyloid nucleation score is on record?
Answer: inactive

Question: Which amyloid nucleation score does the source give for GYTDRLVLNRKGGQYGGFEN here?
Answer: inactive

Question: For GYTMRG, which amyloid nucleation score is on record?
Answer: inactive

Question: For GYVVQIMFYILVVHTTWSSA, which amyloid nucleation score is on record?
Answer: -0.451 ± 0.98

Question: Which amyloid nucleation score does the source give for GYYANGISRPVILLMFWRVR here?
Answer: inactive

Question: With HAKADL as the substance, how does the amyloid nucleation score read?
Answer: inactive

Question: With HCDCTFYSSLGFIGGTWDSC as the substance, how does the amyloid nucleation score read?
Answer: inactive

Question: Which amyloid nucleation score does the source give for HDAVLI here?
Answer: inactive

Question: With HDCSYLGILKDMDS as the substance, how does the amyloid nucleation score read?
Answer: inactive

Question: Which amyloid nucleation score does the source give for HDESQVVLCRYCCSDVRLTH here?
Answer: inactive

Question: For HDKAVQEVGQGCGE, which amyloid nucleation score is on record?
Answer: 1.34 ± 0.11

Question: Which amyloid nucleation score does the source give for HFCKRLENIVYLRIFIFYLN here?
Answer: inactive

Question: Which amyloid nucleation score does the source give for HFCSGSINMMNFLSKDYKMQ here?
Answer: 2.39 ± 0.063

Question: With HFEIVSVANKITYCLCQQML as the substance, how does the amyloid nucleation score read?
Answer: 2.28 ± 0.075

Question: With HFFNPCQGHRNKVPRRAS as the substance, how does the amyloid nucleation score read?
Answer: inactive

Question: Which amyloid nucleation score does the source give for HFGQCSVMMCDAWGMSDQGP here?
Answer: inactive

Question: With HFLLNWSRQI as the substance, how does the amyloid nucleation score read?
Answer: inactive

Question: With HFMLNIWKVDNNMLWVLICP as the substance, how does the amyloid nucleation score read?
Answer: inactive

Question: With HFNPPYRMFPHYVLLMNMYL as the substance, how does the amyloid nucleation score read?
Answer: inactive

Question: Which amyloid nucleation score does the source give for HFVLWHLKGSQFGGSVAVIQ here?
Answer: inactive

Question: With HGQFMWLMYYMNILSFLLGF as the substance, how does the amyloid nucleation score read?
Answer: inactive

Question: Which amyloid nucleation score does the source give for HGSYSDGVEVNEFRLGTRVG here?
Answer: inactive

Question: Which amyloid nucleation score does the source give for HGVWSCRWWLNNRMF here?
Answer: inactive

Question: With HHLSTRINCIDRVRSPNLRL as the substance, how does the amyloid nucleation score read?
Answer: -0.708 ± 1.4

Question: With HHLTFTGGWYPDWHSLFMGG as the substance, how does the amyloid nucleation score read?
Answer: inactive

Question: With HHRLSGEMSSWVATATCWVG as the substance, how does the amyloid nucleation score read?
Answer: inactive

Question: With HIFDNSYIFLDLLLARKY as the substance, how does the amyloid nucleation score read?
Answer: 1.87 ± 0.061

Question: Which amyloid nucleation score does the source give for HIINCFIFLNVTDYTIVFLL here?
Answer: 2.21 ± 0.074

Question: With HILHLRLDYFLGA as the substance, how does the amyloid nucleation score read?
Answer: 0.401 ± 0.3

Question: For HINARRLYFTYV, which amyloid nucleation score is on record?
Answer: inactive

Question: With HIVKKFPSPMRITWCGSPFQ as the substance, how does the amyloid nucleation score read?
Answer: inactive

Question: Which amyloid nucleation score does the source give for HIVMVLRSLAYVSSSTHGRR here?
Answer: inactive

Question: Which amyloid nucleation score does the source give for HIWVCLEVGVGKSILVLLLF here?
Answer: inactive

Question: With HIYRYLMS as the substance, how does the amyloid nucleation score read?
Answer: inactive

Question: For HKLLGVTYYAV, which amyloid nucleation score is on record?
Answer: inactive

Question: With HKPCRCKTMLWDLAIVGSLE as the substance, how does the amyloid nucleation score read?
Answer: inactive

Question: For HKSVLFNTRSSCRTSVLIVR, which amyloid nucleation score is on record?
Answer: inactive

Question: For HLACLRV, which amyloid nucleation score is on record?
Answer: inactive

Question: For HLAHLSRSLSVKSSSVMKGH, which amyloid nucleation score is on record?
Answer: inactive

Question: Which amyloid nucleation score does the source give for HLFGDFDKWVDKLWRYNRVD here?
Answer: 0.985 ± 0.21

Question: With HLFLKHMLLTYCKPCGW as the substance, how does the amyloid nucleation score read?
Answer: inactive

Question: Which amyloid nucleation score does the source give for HLNLTHNWNVYGKDLNGQFF here?
Answer: 2.13 ± 0.072

Question: With HLRDMQRSQNLVG as the substance, how does the amyloid nucleation score read?
Answer: inactive

Question: With HLSSNVLNYVLNFHWFCNFG as the substance, how does the amyloid nucleation score read?
Answer: 0.836 ± 0.16

Question: For HLVADWQCHSDGFKSWLGNW, which amyloid nucleation score is on record?
Answer: inactive

Question: With HLVMGWLTKPSSIFGLEDKR as the substance, how does the amyloid nucleation score read?
Answer: 1.13 ± 0.11

Question: With HMCRTSCDRFGAIPNFMHWS as the substance, how does the amyloid nucleation score read?
Answer: inactive

Question: With HMTGARRN as the substance, how does the amyloid nucleation score read?
Answer: inactive

Question: With HNKDDK as the substance, how does the amyloid nucleation score read?
Answer: inactive
